Experimental data published in the nanobody polyreactivity screen of Harvey et al. (2022).

Test: yeast display, Sf9 membrane polyspecificity reagent, FACS + sequencing; frameworks hold sequencing errors
Procedure, shortened: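 Genes from sorted yeast were amplified by colony PCR, read by MiSeq 2 × 250 sequencing and filtered on CDR length. These cells carried a synthetic nanobody library in Saccharomyces cerevisiae BJ5465 and were sorted by FACS into low and high (top ~1%) gates on anti-HA and streptavidin fluorescence. Polyreactivity is labelled according to the gate of origin.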

| Sequence | polyreactivity (PSR sort gate) |
| --- | --- |
| QVQIVESGGGLVQAGGSLRLICAASGSTFSEYAMGWYRQAPGKERELVAAIRWSGGSTSYADSVKGRFTISRVNAKNTVYLQMNSLKPEDTAVYYCAAERFWYDGEVKLYVLSYYWGQGTQVTVSS | low polyreactivity |
| QVQLVESGGGFVQAGGSLRLSSAASGSTLPGYAMGSYRQAPGKERELVAGISTRGGNTYYADSVKGRFTISRDNAKNTVYLPMNSLKPEDTAVYYCAAGIPRQAYKFYWGQGTQVTVSS | high polyreactivity |
| QVQLVESGGGLVQAGGSLRLSSAASGSIFAYNDMGWYRQAPGKERELVAAITWSGDSTYYADSVKGRFTISRDNAKNTVYLQMNSLKPEDTAVYYCATDPLFKTSTRWKYDYWGQGTQVTVSS | low polyreactivity |
| QVQLVQSAVGLVQAGGSLRLICAASGITFLDNAMGWYRQAPGTERELVAAITSDGNPYYADCVKGRFTISRDNAKNTVYLQMNSLKPEDTAVYYCAVEVSDYYTYVSYDYCGQGTQVTVSS | low polyreactivity |
| QVQLVESGGGLVQAGGSLRLSCAASGRIFSYYDMGWYRQAPGKERELVARISYSGDSTYYADSVKGRFTISRDNAKNTVYLQMNSLKPEDTAVYYCADEVDSGYSEYYWGQGTQVTVSS | low polyreactivity |
| QVQLVESGGGLVQAGGSLRLSCAPSGSTFFTYAMGWYRQAPGKERELVASISIGGSTNYADSVKGRFTISRDNAKNTVYLQMNSLIQEDSAVYYCAIRYFTFGVDYEYWGQGTQVTVSS | low polyreactivity |
| QVQLVESGGGLVQAGGSLRLSCAASGRTFYQNVMGWSRQAPGKERELVAAITWGGGSTYYADSVKGRFTISRDNAKNTVYLQMNSLKPEDTAVYYCNRTFRSRLPTSRGYDYWGQGTQVTVSS | low polyreactivity |
| QFQLVESGGGLVQAGGSLRLSCAAYGFTFYAYTMGWYRQAPGKERELVAAIRTGSSTYYADSVKGRFTISRDNAKNTVYLQMNSMKPQDTAVYYCAAPRWRRPYRYDYWGQGTQVTVSS | high polyreactivity |
| QVQLVESGGGLVQAGGSLRLSCAASGRTLYKNTMGWYRPAPGKERELVAAINYSGGSTYYADSVKGRFTISRDNAKNTVYLQMNSLKPEDTAVYYCAADYYDSTGEYDYWGQGTQVTVSS | high polyreactivity |
| QDQLVESGGGLVQAGGSLRLSCAASGFTFGRYAMGWYRQAPGKERELVATITRTGSTNYADSVKGRFTISRDNAKNTVDLQMHSLKPEDTAVYYCNAVYSGWRYVKYDYWGPGTQVTVSS | low polyreactivity |
| QVQLVQSGGGLVQAGGSLRLSCAPTGVIFRHNARGWYRQSPGKERELVAAISRSGGNTYYADSVKGRFTISRDNAKQTDYLQRNSLKPEDTAVYYSNKIEYDSWADHVYWGQGTQVTVSS | low polyreactivity |
| QDQHVDSGGGLVQAGGSLRLRCAASGFTIADYAMGWYRQAPGKERELVAAINRSGGRTYYADSVKGRFTISRDYAKNTVYLQMNMLKPEDTAVYYCAAYGITYHNSDSWGQGTQVTVSS | high polyreactivity |
| QVQLVESGGGLVQAGGSLRLSCAASGSTFIYNTMGWYRQAPGKEREFVAAITQSGGDTYYADSVKGRFTISRDNAKNTVYLQMNSLKPEDTADYYCAAYWILNNFEMYYWGQGPQVTVSS | low polyreactivity |
| QVQLVESGGGLVQAGGSLRLSCAAYGLTFPWNAMGWYRQSPGKERELVAAITSRGGNTYYADSVKGRFTISRDNAKNTVYLQMNSLKPEDTAVYYCAARQYWSYRRYDYWGQGTQVTVSS | high polyreactivity |
| QVQLVESGGGLVQAGGSLRLSCAASGSTFDKYAMGWYRQAPGKERELVAAISSGSSTSYADSVKGRFTISRDNAKNTVYLQMNSLKPEDTAVYYCAAEVAESIEDDYWGQGTQVTVSS | low polyreactivity |
| QVQLVESGGGLVQAGGSLRLSCAASGFTFHNYAMGWYRQAPGKEREFVAAITRNTASTYYADSVKGRFTISRDNAKTTVYLQMISLKPEATAVYYCAATDKKHRTAYDSWGQRTQVTVSS | low polyreactivity |
| QVQLEESGGGLVQAGGSLRLSCAASGSIFTVNAMGWYRQAPGKERELVAAISSGGSTHYADSVKGRFTISRDNAKNTVYLQMNSLKPEDTAVYFCNAAGAYPDRDNYWGQGTQVTVSS | low polyreactivity |
| QVQLVESGGGLVQAGGSLRLSCAASGIIFSWNTMGWYRQAPGKERELVAAISSSGGSTYYADSVKGRFTISRDNAKNTVYLQMNSLKPEDTAVYYCAADVYHWIHEYDYWGQGTQVTVSS | low polyreactivity |
| QVQLVDSGGGLDQAGGSLRLSCAAAGSIFYSYAMGWYSQATGKDSELVADISSDGSTNYADSVKGRFTISRDNAKNTVYVQINSLKPEDTAVYYCAKKPSSARYVTIGFDEWGHGTQVTVSS | low polyreactivity |
| QVQLVESGGGLLQAGGSLRLSCAASGRIFAVYAMGWYRQAPGKEREFVAAISYSGGITYYADSVKGRFTISRDNAKNTVYLQMNSLKPEDSAVFYCNSYYYFWGQGTQVTVSS | low polyreactivity |
| QVQIVESGGGLLQAGGSLRLSCAASGGIFGRYAMGWYRQAPGKERELVAAITTRGTSTYYADSVKGRFTISRDNAMNTVYLQMNSLKPEDTAVYYCSAAYGRHPSSGSWGQGTQVTVSS | high polyreactivity |
